# Measurements published in the supplement of paper PMC9112550, “Optimization of the antimicrobial peptide Bac7 by deep mutational scanning” (BMC Biology, 2022).
# System: Escherichia coli TOP10
# Assay: shrunken log2 fold change of peptide-encoding DNA abundance (4.5 h post-induction vs induction); higher = less antimicrobial activity (less host growth inhibition)
# Settings: time post-induction: 4.5 h; library: site-saturation at positions 5, 18, 19, 20
# 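Further: peptides expressed intracellularly from a pBAD plasmid library in pooled LB shake-flask culture, induced with 0.3% L-arabinose, DNA abundance read by NGS, three biological replicates, DESeq2 with apeglm shrinkage.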
row,Sequence,shrunken log2 fold change
1,RRIRRRPPRLPRPRPRPPCLPRP,0.426
2,RRIRRRPPRLPRPRPRPPCWPRP,0.325
3,RRIRRRPPRLPRPRPRPPDDPRP,0.743
4,RRIRRRPPRLPRPRPRPPEFPRP,0.614
5,RRIRRRPPRLPRPRPRPPEKPRP,1.6
6,RRIRRRPPRLPRPRPRPPFKPRP,0.321
7,RRIRRRPPRLPRPRPRPPFWPRP,0.959
8,RRIRRRPPRLPRPRPRPPIHPRP,-0.11
9,RRIRRRPPRLPRPRPRPPKNPRP,0.671
10,RRIRRRPPRLPRPRPRPPLTPRP,0.841
11,RRIRRRPPRLPRPRPRPPMTPRP,0.43
12,RRIRRRPPRLPRPRPRPPPRPRP,1.32
13,RRIRRRPPRLPRPRPRPPQCPRP,1.55
14,RRIRRRPPRLPRPRPRPPQEPRP,0.405
15,RRIRRRPPRLPRPRPRPPQLPRP,1.02
16,RRIRRRPPRLPRPRPRPPRPPRP,1.01
17,RRIRRRPPRLPRPRPRPPTDPRP,0.709
18,RRIRRRPPRLPRPRPRPPTKPRP,0.52
19,RRIRRRPPRLPRPRPRPPYKPRP,0.114
20,RRIRRRPPRLPRPRPRPPYVPRP,0.181
21,RRIRRRPPRLPRPRPRPQAGPRP,-9.87e-05
22,RRIRRRPPRLPRPRPRPQAYPRP,0.0231
23,RRIRRRPPRLPRPRPRPQCPPRP,-0.178
24,RRIRRRPPRLPRPRPRPQDQPRP,0.168
25,RRIRRRPPRLPRPRPRPQFCPRP,-0.0309

row,Sequence,shrunken log2 fold change
1,RRIRRRPPRLPRPRPRPQFHPRP,-0.133
2,RRIRRRPPRLPRPRPRPQFNPRP,-0.323
3,RRIRRRPPRLPRPRPRPQGCPRP,-0.189
4,RRIRRRPPRLPRPRPRPQGRPRP,0.544
5,RRIRRRPPRLPRPRPRPQHGPRP,0.198
6,RRIRRRPPRLPRPRPRPQHKPRP,0.0372
7,RRIRRRPPRLPRPRPRPQHTPRP,0.191
8,RRIRRRPPRLPRPRPRPQISPRP,-0.0603
9,RRIRRRPPRLPRPRPRPQKGPRP,-0.138
10,RRIRRRPPRLPRPRPRPQMLPRP,0.246
11,RRIRRRPPRLPRPRPRPQMPPRP,0.283
12,RRIRRRPPRLPRPRPRPQQLPRP,-0.0976
13,RRIRRRPPRLPRPRPRPQQQPRP,-0.0864
14,RRIRRRPPRLPRPRPRPQRHPRP,-0.0855
15,RRIRRRPPRLPRPRPRPQRTPRP,0.152
16,RRIRRRPPRLPRPRPRPQSAPRP,0.123
17,RRIRRRPPRLPRPRPRPQSQPRP,0.112
18,RRIRRRPPRLPRPRPRPQTIPRP,0.272
19,RRIRRRPPRLPRPRPRPQTNPRP,0.257
20,RRIRRRPPRLPRPRPRPQVVPRP,0.0705
21,RRIRRRPPRLPRPRPRPQWHPRP,0.181
22,RRIRRRPPRLPRPRPRPQYEPRP,-0.00402
23,RRIRRRPPRLPRPRPRPRAKPRP,0.203
24,RRIRRRPPRLPRPRPRPRCFPRP,0.474
25,RRIRRRPPRLPRPRPRPRCSPRP,0.152

row,Sequence,shrunken log2 fold change
1,RRIRRRPPRLPRPRPRPRCWPRP,0.486
2,RRIRRRPPRLPRPRPRPREDPRP,0.811
3,RRIRRRPPRLPRPRPRPREEPRP,0.919
4,RRIRRRPPRLPRPRPRPRGNPRP,0.524
5,RRIRRRPPRLPRPRPRPRHNPRP,-0.14
6,RRIRRRPPRLPRPRPRPRKFPRP,0.491
7,RRIRRRPPRLPRPRPRPRKLPRP,0.253
8,RRIRRRPPRLPRPRPRPRLRPRP,0.848
9,RRIRRRPPRLPRPRPRPRMDPRP,2.27
10,RRIRRRPPRLPRPRPRPRNAPRP,0.356
11,RRIRRRPPRLPRPRPRPRNKPRP,0.0888
12,RRIRRRPPRLPRPRPRPRPFPRP,0.699
13,RRIRRRPPRLPRPRPRPRPQPRP,0.541
14,RRIRRRPPRLPRPRPRPRQFPRP,0.225
15,RRIRRRPPRLPRPRPRPRQPPRP,0.997
16,RRIRRRPPRLPRPRPRPRRFPRP,0.352
17,RRIRRRPPRLPRPRPRPRTFPRP,0.338
18,RRIRRRPPRLPRPRPRPRTIPRP,0.134
19,RRIRRRPPRLPRPRPRPRTQPRP,0.19
20,RRIRRRPPRLPRPRPRPRVYPRP,0.335
21,RRIRRRPPRLPRPRPRPRWLPRP,0.388
22,RRIRRRPPRLPRPRPRPRWWPRP,0.318
23,RRIRRRPPRLPRPRPRPRYFPRP,0.502
24,RRIRRRPPRLPRPRPRPSAQPRP,0.234
25,RRIRRRPPRLPRPRPRPSDEPRP,-0.0356

row,Sequence,shrunken log2 fold change
1,RRIRRRPPRLPRPRPRPSDTPRP,-0.0536
2,RRIRRRPPRLPRPRPRPSFQPRP,0.0356
3,RRIRRRPPRLPRPRPRPSGMPRP,-0.0586
4,RRIRRRPPRLPRPRPRPSGWPRP,0.333
5,RRIRRRPPRLPRPRPRPSGYPRP,-0.201
6,RRIRRRPPRLPRPRPRPSKWPRP,-0.149
7,RRIRRRPPRLPRPRPRPSLMPRP,-0.0626
8,RRIRRRPPRLPRPRPRPSMIPRP,-0.114
9,RRIRRRPPRLPRPRPRPSMYPRP,-0.345
10,RRIRRRPPRLPRPRPRPSNDPRP,-0.162
11,RRIRRRPPRLPRPRPRPSPEPRP,0.513
12,RRIRRRPPRLPRPRPRPSPGPRP,0.258
13,RRIRRRPPRLPRPRPRPSPVPRP,0.379
14,RRIRRRPPRLPRPRPRPSRWPRP,0.08
15,RRIRRRPPRLPRPRPRPSWHPRP,-0.0466
16,RRIRRRPPRLPRPRPRPSWYPRP,0.363
17,RRIRRRPPRLPRPRPRPSYIPRP,-0.416
18,RRIRRRPPRLPRPRPRPTAIPRP,0.211
19,RRIRRRPPRLPRPRPRPTCSPRP,0.0172
20,RRIRRRPPRLPRPRPRPTEFPRP,-0.191
21,RRIRRRPPRLPRPRPRPTEGPRP,0.18
22,RRIRRRPPRLPRPRPRPTEHPRP,0.0963
23,RRIRRRPPRLPRPRPRPTEMPRP,0.477
24,RRIRRRPPRLPRPRPRPTGPPRP,0.369
25,RRIRRRPPRLPRPRPRPTHFPRP,1.01

row,Sequence,shrunken log2 fold change
1,RRIRRRPPRLPRPRPRPTIFPRP,0.149
2,RRIRRRPPRLPRPRPRPTLIPRP,0.157
3,RRIRRRPPRLPRPRPRPTLLPRP,0.465
4,RRIRRRPPRLPRPRPRPTLQPRP,0.678
5,RRIRRRPPRLPRPRPRPTLSPRP,-0.0436
6,RRIRRRPPRLPRPRPRPTMGPRP,0.0489
7,RRIRRRPPRLPRPRPRPTMYPRP,0.0102
8,RRIRRRPPRLPRPRPRPTNTPRP,0.142
9,RRIRRRPPRLPRPRPRPTPEPRP,0.572
10,RRIRRRPPRLPRPRPRPTPKPRP,1.24
11,RRIRRRPPRLPRPRPRPTPSPRP,0.772
12,RRIRRRPPRLPRPRPRPTQLPRP,0.628
13,RRIRRRPPRLPRPRPRPTRNPRP,0.853
14,RRIRRRPPRLPRPRPRPTTIPRP,-0.12
15,RRIRRRPPRLPRPRPRPTTMPRP,0.32
16,RRIRRRPPRLPRPRPRPTVEPRP,1.39
17,RRIRRRPPRLPRPRPRPTYIPRP,-0.12
18,RRIRRRPPRLPRPRPRPVCHPRP,-0.0349
19,RRIRRRPPRLPRPRPRPVCMPRP,0.32
20,RRIRRRPPRLPRPRPRPVGNPRP,-0.0457
21,RRIRRRPPRLPRPRPRPVGSPRP,0.432
22,RRIRRRPPRLPRPRPRPVGVPRP,0.705
23,RRIRRRPPRLPRPRPRPVIIPRP,-0.106
24,RRIRRRPPRLPRPRPRPVIKPRP,-0.121
25,RRIRRRPPRLPRPRPRPVIMPRP,0.189

row,Sequence,shrunken log2 fold change
1,RRIRRRPPRLPRPRPRPVINPRP,-0.0966
2,RRIRRRPPRLPRPRPRPVISPRP,0.104
3,RRIRRRPPRLPRPRPRPVKTPRP,0.05
4,RRIRRRPPRLPRPRPRPVMAPRP,0.281
5,RRIRRRPPRLPRPRPRPVMCPRP,0.0382
6,RRIRRRPPRLPRPRPRPVMRPRP,0.714
7,RRIRRRPPRLPRPRPRPVMYPRP,-0.127
8,RRIRRRPPRLPRPRPRPVNVPRP,-0.0902
9,RRIRRRPPRLPRPRPRPVQEPRP,-0.00475
10,RRIRRRPPRLPRPRPRPVQPPRP,0.669
11,RRIRRRPPRLPRPRPRPVQSPRP,0.0557
12,RRIRRRPPRLPRPRPRPVRCPRP,0.424
13,RRIRRRPPRLPRPRPRPVSGPRP,0.366
14,RRIRRRPPRLPRPRPRPVTNPRP,0.266
15,RRIRRRPPRLPRPRPRPVTPPRP,0.705
16,RRIRRRPPRLPRPRPRPVWDPRP,0.246
17,RRIRRRPPRLPRPRPRPWAFPRP,0.00699
18,RRIRRRPPRLPRPRPRPWCYPRP,-0.439
19,RRIRRRPPRLPRPRPRPWDMPRP,0.0681
20,RRIRRRPPRLPRPRPRPWELPRP,0.0522
21,RRIRRRPPRLPRPRPRPWFKPRP,-0.139
22,RRIRRRPPRLPRPRPRPWFQPRP,-0.0671
23,RRIRRRPPRLPRPRPRPWHGPRP,-0.202
24,RRIRRRPPRLPRPRPRPWICPRP,-0.0987
25,RRIRRRPPRLPRPRPRPWLDPRP,-0.0721
